The record followed here is paper PMC7263513 (bioRxiv, 2020).

B1: C215 (antibody, V domains shown)
VH: EVQLLESGGGLVQPGGSLRLSCAASGFTFSSYAMSWVRQAPGKGLEWVSAITDSGDGTFYADSVKGRFTISRDNSKNTLYLQMNSLRAEDTAVYYCASEEDYSNYVGWFDPWGQGTLVTVSS
VL: not shown
B2: C201 (antibody, V domains shown)
VH: EVQLVESGGGLVQPGRSLRLSCAASGFTFDDYAMHWVRQAPGKGLEWVSGISWNSGSIGYADSVKGRFTISRDNAKNSLYLQMNSLRAEDTALYYCVKGVEYSSSSNFDYWGQGTLVTVSS
VL: IRMTQSPSSVSASVGDRVTITCRASQGISSWLAWYQQKPGKAPKLLIYVESSLQSGVPSRFSGSGSGTDFTLTISSLQPEDFATYYCQQANSFPLTFGGGTKVEIK
B3: C216 (antibody, V domains shown)
VH: EVQLVESGGGLVQPGGSLRLSCAASGFTFSSYDMHWVRQATGKGLEWVSAIGTAGDTYYPDSVKGRFTISRENAKNSLYLQMNSLRAGDTAVYYCARDRGSSGWYGWYFDLWGRGTLVTVSS
VL: not shown
B4: C210 (antibody, V domains shown)
VH: EVQLVESGGGLIQPGGSLRLSCAASGFTVSSNYMSWVRQAPGKGLEWVSVIYSGGSTFYADSVKGRFTFSRDNSKNTLYLQMNSLRAEDTAVYYCARDLMAYGMDVWGQGTTVTVSS
VL: DIQLTQSPSFLSASVGDRVTITCRASQGISSYLAWYQQKPGKAPKLLIYAASTLQSGVPSRFSGSGSGTEFTLTISSLQPEDFATYYCQQLNSYPQGTFGGGTKVEIK
B5: C156 (antibody, V domains shown)
VH: QVQLVESGGGVVQPGRSLRLSCAASGFTFSNYGMHWVRQAPGKGLEWVAVISYDGNNKYYADSVKGRFTISRDNSKNTLYLQMNSLRAEDTAVYYCAKDPFPLAVAGTGYFDYWGQGTLVTVSS
VL: SYELTQPPSVSVAPGQTARISCGGNNIGSKNVHWYQQKPGQAPVLVVYDDSDRPSGIPERFSGSNSGNTATLTISRVEAGDEADYYCQVWDSSSDPWVFGGGTKLTVL
B6: C207 (antibody, V domains shown)
VH: not shown
VL: EIVLTQSPATLSLSPGERATLSCRASQSVSSYLAWYQQKPGQAPRLLIYDASNRATGIPARFSGSGSGTDFTLTISSLEPEDFAVYYCQQRSNWPRGFGQGTKVEIK
B7: C211 (antibody, V domains shown)
VH: EVQLVESGGGLVQPGGSLRLSCAASEFTVSSNYMSWVRQAPGKGLEWVSVIYSGGSTFYADSVKGRFTISRDNSKNTLYLQMNSLRPEDTAVYYCARDYGDFYFDFWGQGTLVTVSS
VL: EIVMTQSPATLSVSPGERATLSCRASQSVSSNLAWYQQKPGQGPRLLIYGASTRATGIPARFSGSGSGTEFTLTISSLQSEDFAVYYCQQYNNWPRTFGQGTKVEIK
B8: C204 (antibody, V domains shown)
VH: EVQLLESGGGLEQPGGSLRLSCAASGFTFSTYAMSWVRQAPGKGLEWVSAISGSGAGTFYADSVKGRFTISRDNSKNTLYLQMNSLRAEDTAVYYCARESDCGSTSCYQVGWFDPWGQGTLVTVSS
VL: not shown
B9: C164 (antibody, V domains shown)
VH: EVQLVESGGGLVQPGGSLRLSCAASGFSVSTKYMTWVRQAPGKGLEWVSVLYSGGSDYYADSVKGRFTISRDNSKNALYLQMNSLRVEDTGVYYCARDSSEVRDHPGHPGRSVGAFDIWGQGTMVTVSS
VL: QSALTQPASVSGSPGQSITISCTGTSNDVGSYTLVSWYQQYPGKAPKLLIFEVTKRSSGISNRFSGSKSGNTASLTISGLQGEDEADYYCCSYAGASTFVFGGGTKLTVL
B10: C202 (antibody, V domains shown)
VH: EVQLVESGGGLVQPGGSLRLSCAASGFTVSSNYMSWVRQAPGKGLEWVSLIYSGGSTYYADSVKGRFTISRDNSKNTLYLQMNSLRAEDTAVYYCARDTLGRGGDYWGQGTLVTVSS
VL: DIQLTQSPSSLSASVGDRVTITCQASQDISNYLNWYQQKPGKAPKLLIYDASNLETGVPSRFSGSGSGTDFTFTISSLQPEDIATYYCQQYDNLPRSFGQGTKLEIK
B11: C165 (antibody, V domains shown)
VH: QVQLVQSGAEVKKPGSSVKVSCKASGGTFSSYAINWVRQAPGQGLEWMGRIIPIVGIANYAQKFQGRVTITADKSSSTAYMELSSLRSEDTAVYYCARDLLDPQLDDAFDIWGQGTMVTVSS
VL: not shown
B12: C214 (antibody, V domains shown)
VH: QVQLVESGGGVVQPGRSLRLSCAASGFTFSSYGMHWVRQAPGKGLEWVAAIWYDGSNKHYADSVKGRFTISRDNSKNTLYLQMNSLRAEDTAVYYCARDVGRVTTWFDPWGQGTLVTVSS
VL: not shown
B13: C212 (antibody, V domains shown)
VH: QVQLVQSGAEVKKPGASVKVSCKASGYTVTGYYIHWVRQAPGQGLEWMGWISPNSGGTNYAQKFQGWVTMTRDMSITTAYMELSRLRSDDTAVYYCARERYFDLGGMDVWGQGTTVTVSS
VL: LTQPASVSGSPGQSITISCTGTSSDVGSYNLVSWYQQHPGKAPKLMIYEDSKRPSGVSNRFSGSKSGNTASLTISGLQAEDEADYYCCSYAGSSTRLFGGGTKLTVL
B14: C208 (antibody, V domains shown)
VH: EVQLVQSGAEVKKPGESLKISCKGSGYSFTSYWIGWVRQMPGKGLEWMGIIYPGDSDTRYSPSFQGQVTISADKSISTAYLKWSSLKASDSAMYYCARGPNLQNWFDPWGQGTLVTVSS
VL: EIVLTQSPGTLSLSPGERATLSCRASQSVSGSYLAWYQQRPGQAPRLLIYGASSRATGIPDRFSGSGSGTDFTLTISRLEPEDFAVYYCQQYGSSLTFGGGTKVEIK
B15: C146 (antibody, V domains shown)
VH: EVQLVESGGGLVKPGGSLRLSCAASGLTFTAYRMNWVRQAPGKGLEWLSSISNTNGDIYYADSVKGRFTISRDNAKNSLYLQMNSLRADDTAVYYCARDVASNYAYFDLWGQGTLVTVSS
VL: QSALTQPASVSGSPGQSITISCTGTSSDIGVYNYISWSQQHPGKAPKVMIYDVTNRPSGVSNRFSGSKSGNTASLTISGLQAEDEADYYCSSYRGSSTPYVFGTGTKVTVL

In one assay the target is T1, SARS-CoV-2 receptor binding domain (RBD) (Severe acute respiratory syndrome …, UniProt P0DTC2). Briefly: cell-based or functional assay.
With B1, the “IC50 of neutralisation of SARS-CoV-2 pseudovirus (293T_(ACE2) cells)” value (from here on “IC50”) was more than 1000 ng/mL.
Same read-out and setting: for B2 the value was more than 1000 ng/mL; for B3, more than 1000 ng/mL; for B4, 50.7 ng/mL.
Consider B5, for which the “IC50” value was more than 1000 ng/mL.
On to B6, for which the “IC50” value was 159 ng/mL.
On the same count and under the same terms, for B7 the value was 12.8 ng/mL.
The same measure, in the same setting: for B8 the value was more than 1000 ng/mL; for B9, 239 ng/mL; for B10, more than 1000 ng/mL.
The same measure, in the same setting: the figure for B11 is 40.8 ng/mL.
For B12, the “IC50” value was more than 1000 ng/mL.

The next assay addresses T1, SARS-CoV-2 receptor binding domain (RBD). As to the kind of experiment: ELISA.
For the molecule B13, the binding result was “no binding (tested: >1000 ng/ml)”.
On the same count and under the same terms, the entry for B14 is “no binding (tested: >1000 ng/ml)”; for B15 it is “no binding (tested: >1000 ng/ml)”.
